Source: the Immune Epitope Database (IEDB)

Tests used:
HLA-A*01:01 [1] = assay: IEDB peptide-MHC binding, purified MHC/direct/fluorescence; filed as Kd, often an IC50 or EC50 that approximates it; ≥ and ≤ were set here for values at or beyond the usual limits of such assays; details: source organism: Camelpox virus M-96
HLA-A*03:01 [2] = assay: as above; details: source organism: Camelpox virus M-96
HLA-A*11:01 [3] = assay: as above; details: source organism: Camelpox virus M-96
HLA-A*26:02 = assay: as above; details: source organism: Variola virus
HLA-A*31:01 = assay: as above; details: source organism: Camelpox virus M-96
HLA-A*68:02 [4] = assay: as above; details: source organism: Camelpox virus M-96
HLA-A*69:01 = assay: as above; details: source organism: Camelpox virus M-96
HLA-B*07:02 [5] = assay: as above; details: source organism: Camelpox virus M-96
HLA-B*08:01 [6] = assay: as above; details: source organism: Variola virus
HLA-B*08:03 = assay: as above; details: source organism: Variola virus
HLA-B*15:01 [7] = assay: as above; details: source organism: Camelpox virus M-96
HLA-B*15:17 [8] = assay: as above; details: source organism: Camelpox virus M-96
HLA-B*18:01 [9] = assay: as above; details: source organism: Camelpox virus M-96
HLA-B*40:01 [10] = assay: as above; details: source organism: Camelpox virus M-96
HLA-B*46:01 [11] = assay: as above; details: source organism: Camelpox virus M-96
HLA-B*48:01 = assay: as above; details: source organism: Camelpox virus M-96
HLA-B*57:01 [12] = assay: as above; details: source organism: Camelpox virus M-96
HLA-B*58:01 [13] = assay: as above; details: source organism: Camelpox virus M-96
HLA-A*02:01 = assay: IEDB peptide-MHC binding, purified MHC/competitive/fluorescence; filed as Kd, often an IC50 or EC50 that approximates it; ≥ and ≤ were set here for values at or beyond the usual limits of such assays
HLA-A*02:03 = assay: as above
HLA-A*26:03 = assay: as above; details: source organism: Vaccinia virus Copenhagen
HLA-C*07:02 = assay: IEDB peptide-MHC binding, purified MHC/direct/fluorescence; filed as Kd, often an IC50 or EC50 that approximates it; ≥ and ≤ were set here for values at or beyond the usual limits of such assays; details: source organism: Vibrio cholerae
HLA-A*01:01 [14] = assay: IEDB peptide-MHC binding, purified MHC/competitive/fluorescence; filed as Kd, often an IC50 or EC50 that approximates it; ≥ and ≤ were set here for values at or beyond the usual limits of such assays; details: source organism: Vibrio cholerae
HLA-A*02:12 = assay: as above; details: source organism: Vibrio cholerae
HLA-A*02:19 = assay: as above; details: source organism: Vibrio cholerae
HLA-A*03:01 [15] = assay: as above; details: source organism: Vibrio cholerae
HLA-A*11:01 [16] = assay: as above; details: source organism: Vibrio cholerae
HLA-A*23:01 = assay: as above; details: source organism: Vibrio cholerae
HLA-A*24:03 = assay: as above; details: source organism: Vibrio cholerae
HLA-A*26:01 = assay: as above; details: source organism: Vibrio cholerae
HLA-A*29:02 = assay: as above; details: source organism: Vibrio cholerae
HLA-A*30:02 = assay: as above; details: source organism: Vibrio cholerae
HLA-A*66:01 = assay: as above; details: source organism: Vibrio cholerae
HLA-A*68:02 [17] = assay: as above; details: source organism: Vibrio cholerae
HLA-B*07:02 [18] = assay: as above; details: source organism: Vibrio cholerae
HLA-B*08:01 [19] = assay: as above; details: source organism: Vibrio cholerae
HLA-B*14:02 = assay: as above; details: source organism: Vibrio cholerae
HLA-B*15:01 [20] = assay: as above; details: source organism: Vibrio cholerae
HLA-B*15:17 [21] = assay: as above; details: source organism: Vibrio cholerae
HLA-B*18:01 [22] = assay: as above; details: source organism: Vibrio cholerae
HLA-B*27:05 = assay: as above; details: source organism: Vibrio cholerae
HLA-B*40:01 [23] = assay: as above; details: source organism: Vibrio cholerae
HLA-B*44:02 = assay: as above; details: source organism: Vibrio cholerae
HLA-B*46:01 [24] = assay: as above; details: source organism: Vibrio cholerae
HLA-B*51:01 = assay: as above; details: source organism: Vibrio cholerae
HLA-B*53:01 = assay: as above; details: source organism: Vibrio cholerae
HLA-B*57:01 [25] = assay: as above; details: source organism: Vibrio cholerae
HLA-B*58:01 [26] = assay: as above; details: source organism: Vibrio cholerae
[27] = source organism: Vaccinia virus Copenhagen
[28] = source organism: Vibrio cholerae

GLYRLNFRR gave a Kd (HLA-A*01:01 [1]) of no less than 20 µM, a Kd (HLA-A*03:01 [2]) of 0.242 µM and a Kd (HLA-A*11:01 [3]) of 0.237 µM. The Kd (HLA-A*26:02) was no less than 20 µM, the Kd (HLA-A*31:01) was 0.0017 µM and the Kd (HLA-A*68:02 [4]) was no less than 20 µM. The Kd (HLA-A*69:01) was no less than 20 µM, the Kd (HLA-B*07:02 [5]) was no less than 20 µM and the Kd (HLA-B*08:01 [6]) was no less than 20 µM. It also gave a Kd (HLA-B*08:03) of no less than 20 µM, a Kd (HLA-B*15:01 [7]) of no less than 20 µM and a Kd (HLA-B*15:17 [8]) of no less than 20 µM. For the same sequence, the Kd (HLA-B*18:01 [9]) was no less than 20 µM, the Kd (HLA-B*40:01 [10]) was no less than 20 µM and the Kd (HLA-B*46:01 [11]) was no less than 20 µM. The Kd (HLA-B*48:01) was no less than 20 µM, the Kd (HLA-B*57:01 [12]) was no less than 20 µM and the Kd (HLA-B*58:01 [13]) was no less than 20 µM. The Kd (HLA-A*02:01; [27]) was 0.966 µM, the Kd (HLA-A*02:03; [27]) was no less than 20 µM and the Kd (HLA-A*26:03) was no less than 20 µM.
Sequence TRAPAPFPL has a Kd (HLA-C*07:02) of 0.045 µM, a Kd (HLA-A*01:01 [14]) of no less than 5 µM and a Kd (HLA-A*02:01; [28]) of no less than 20 µM. It also gave a Kd (HLA-A*02:03; [28]) of no less than 20 µM, a Kd (HLA-A*02:12) of no less than 20 µM and a Kd (HLA-A*02:19) of no less than 20 µM. It also gave a Kd (HLA-A*03:01 [15]) of no less than 20 µM, a Kd (HLA-A*11:01 [16]) of no less than 5 µM and a Kd (HLA-A*23:01) of 3.5 µM. For the same sequence, the Kd (HLA-A*24:03) was no less than 20 µM, the Kd (HLA-A*26:01) was no less than 20 µM and the Kd (HLA-A*29:02) was no less than 20 µM. For the same sequence, the Kd (HLA-A*30:02) was no less than 5 µM, the Kd (HLA-A*66:01) was no less than 5 µM and the Kd (HLA-A*68:02 [17]) was 0.13 µM. For the same sequence, the Kd (HLA-B*07:02 [18]) was no less than 5 µM, the Kd (HLA-B*08:01 [19]) was no less than 5 µM and the Kd (HLA-B*14:02) was 0.565 µM. The Kd (HLA-B*15:01 [20]) was no less than 20 µM, the Kd (HLA-B*15:17 [21]) was no less than 20 µM and the Kd (HLA-B*18:01 [22]) was no less than 20 µM. For the same sequence, the Kd (HLA-B*27:05) was 0.0123 µM, the Kd (HLA-B*40:01 [23]) was no less than 5 µM and the Kd (HLA-B*44:02) was no less than 5 µM. The Kd (HLA-B*46:01 [24]) was no less than 20 µM, the Kd (HLA-B*51:01) was no less than 20 µM and the Kd (HLA-B*53:01) was no less than 5 µM. For the same sequence, the Kd (HLA-B*57:01 [25]) was no less than 20 µM and the Kd (HLA-B*58:01 [26]) was no less than 5 µM.
